Laboratory results as given in patent US20210284747A1 (CAPELLA BIOSCIENCE, published 2021).

T1: Human LIGHT-32L, on II23 cells (human, UniProt O43557 1-240)
T1 construct: also called II23-LIGHT 32L
T1 chain: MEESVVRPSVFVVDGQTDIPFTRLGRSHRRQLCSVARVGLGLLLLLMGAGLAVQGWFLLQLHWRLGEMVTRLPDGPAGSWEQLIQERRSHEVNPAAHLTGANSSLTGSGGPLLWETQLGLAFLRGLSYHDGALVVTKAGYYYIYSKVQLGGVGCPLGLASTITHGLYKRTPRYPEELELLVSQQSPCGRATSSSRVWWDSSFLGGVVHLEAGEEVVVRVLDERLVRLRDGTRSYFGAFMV


Columns and labels:
[1] = target: T1, Human LIGHT-32L, on II23 cells; assay: flow cytometry on II23-LIGHT 32L cells, 4 ug mAb in 100 uL, goat anti-human Fc gamma-PE; signal as % of the commercial anti-LIGHT-PE
Description: The cells were suspended at 1×10⁷ cells/ml and 100 uL aliquots were placed into wells of a 96-well plate, the cells spun down and washed in FACS buffer at 1800 rpm for 2 min. The cells were blocked with 1:100 dilution of anti-CD16/CD32 (eBioscience, San Diego, USA) in FACS buffer for 20 min at room temperature and then washed 1× in FACS buffer at 1800 rpm for 2 min. The cells were then resuspended in 100 uL FACS buffer+4 ug anti-membrane LIGHT mAbs or anti-LIGHT-PE (eBioscience, lot: E01621-1632) for 30 min in the dark at room temperature, followed by washing 1× in FACS buffer at 1800 rpm for 2 min and then resuspended in 100 uL FACS buffer plus 1:100 goat anti-human Fcγ-PE secondary antibody or no secondary antibody at 4° C. in the dark for 30 min. The cells were again washed 1× in FACS buffer at 1800 rpm for 2 min and fixed in 200 uL 2% paraformaldehyde overnight at 4° C. and read on a flow cytometer.

[2] = target: LIGHT without residues 81-84, stably expressed on EL4 cells (EL4-NC-LIGHT); assay: cell-based or functional assay
[3] = target: Full length LIGHT T191A on HEK293FF cells (Homo sapiens (Human), UniProt O43557 1-240); assay: flow cytometry, HEK293FF, mAb at EC50
Chain of Full length LIGHT T191A on HEK293FF cells (O43557 whole entry T191A): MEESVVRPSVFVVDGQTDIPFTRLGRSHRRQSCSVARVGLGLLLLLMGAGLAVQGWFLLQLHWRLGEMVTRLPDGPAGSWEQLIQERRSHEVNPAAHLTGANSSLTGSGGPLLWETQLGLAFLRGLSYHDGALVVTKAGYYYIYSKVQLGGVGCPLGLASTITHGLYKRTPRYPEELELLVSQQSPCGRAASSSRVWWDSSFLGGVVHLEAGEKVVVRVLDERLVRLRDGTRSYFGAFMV
Description: (§1) The day of transfection the cells were seeded in a 24-well plate at 0.6×10⁶ cells/well. Lipofectamine 2000 (ThermoFisher scientific), 3 ul, was mixed with 50 μl OptiMEM medium (GIBCO) and then added to 50 μl Opti-MEM medium containing 3 ug plasmid DNA and incubated for 20 min at RT to form DNA-Lipofectamine 2000 complexes which were then added to the HEK293FF cells and incubated at 37° C., 5% CO₂ for 24 hours. For each construct, in duplicate, 0.60×10⁶ cells/well were used in a 96 well round bottom plate. Cells were centrifuged for 3 minutes at 300×g at 4° C., the supernatant discarded and the cells washed with 150 μl FACS buffer (0.5% FBS in phosphate buffered saline). This process was repeated 3 times. […] The wells were washed 3 times as above and 50 μl/well of goat anti-human IgG FITC (1:1500 dilution in FACS buffer, SIGMA F9512-2ML) or goat anti-mouse APC (1/500 dilution in FACS buffer, BDBioscience 550826), as appropriate, was added to the wells and incubated for 30 min at 4° C. protected from the light, with shaking. The cells were then washed as above, resuspended in 100 μl of FACS buffer and binding of the antibodies to the constructs was measured using flow cytometry and a total of 10,000 cells were acquired for each sample. Controls of buffer and secondary antibody only as well as HEK293FF non transfected cells were also used.

[4] = target: Full length LIGHT G188A on HEK293FF cells (Homo sapiens (Human), UniProt O43557 1-240); assay: flow cytometry, HEK293FF, mAb at EC50
Chain of Full length LIGHT G188A on HEK293FF cells (O43557 whole entry G188A): as the sequence (O43557 whole entry T191A) above, with G188A, A191T counted along it
Description: as §1

[5] = target: Full length LIGHT W198A on HEK293FF cells (Homo sapiens (Human), UniProt O43557 1-240); assay: flow cytometry, HEK293FF, mAb at EC50
Chain of Full length LIGHT W198A on HEK293FF cells (O43557 whole entry W198A): as the sequence (O43557 whole entry T191A) above, with A191T, W198A counted along it
Description: as §1

[6] = target: Full length LIGHT V196A on HEK293FF cells (Homo sapiens (Human), UniProt O43557 1-240); assay: flow cytometry, HEK293FF, mAb at EC50
Chain of Full length LIGHT V196A on HEK293FF cells (O43557 whole entry V196A): as the sequence (O43557 whole entry T191A) above, with A191T, V196A counted along it
Description: as §1

[7] = target: Full length LIGHT S193A on HEK293FF cells (Homo sapiens (Human), UniProt O43557 1-240); assay: flow cytometry, HEK293FF, mAb at EC50
Chain of Full length LIGHT S193A on HEK293FF cells (O43557 whole entry S193A): as the sequence (O43557 whole entry T191A) above, with A191T, S193A counted along it
Description: as §1

[8] = target: Full length LIGHT R189A on HEK293FF cells (Homo sapiens (Human), UniProt O43557 1-240); assay: flow cytometry, HEK293FF, mAb at EC50
Chain of Full length LIGHT R189A on HEK293FF cells (O43557 whole entry R189A): as the sequence (O43557 whole entry T191A) above, with R189A, A191T counted along it
Description: as §1

[9] = target: Full length LIGHT S194A on HEK293FF cells (Homo sapiens (Human), UniProt O43557 1-240); assay: flow cytometry, HEK293FF, mAb at EC50
Chain of Full length LIGHT S194A on HEK293FF cells (O43557 whole entry S194A): as the sequence (O43557 whole entry T191A) above, with A191T, S194A counted along it
Description: as §1

[10] = target: Full length LIGHT A190S on HEK293FF cells (Homo sapiens (Human), UniProt O43557 1-240); assay: flow cytometry, HEK293FF, mAb at EC50
Chain of Full length LIGHT A190S on HEK293FF cells (O43557 whole entry A190S): as the sequence (O43557 whole entry T191A) above, with A190S, A191T counted along it
Description: as §1

[11] = target: Full length LIGHT R195A on HEK293FF cells (Homo sapiens (Human), UniProt O43557 1-240); assay: flow cytometry, HEK293FF, mAb at EC50
Chain of Full length LIGHT R195A on HEK293FF cells (O43557 whole entry R195A): as the sequence (O43557 whole entry T191A) above, with A191T, R195A counted along it
Description: as §1

[12] = target: Full length LIGHT S192A on HEK293FF cells (Homo sapiens (Human), UniProt O43557 1-240); assay: flow cytometry, HEK293FF, mAb at EC50
Chain of Full length LIGHT S192A on HEK293FF cells (O43557 whole entry S192A): as the sequence (O43557 whole entry T191A) above, with A191T, S192A counted along it
Description: as §1

[13] = target: Full length LIGHT W197A on HEK293FF cells (Homo sapiens (Human), UniProt O43557 1-240); assay: flow cytometry, HEK293FF, mAb at EC50
Chain of Full length LIGHT W197A on HEK293FF cells (O43557 whole entry W197A): as the sequence (O43557 whole entry T191A) above, with A191T, W197A counted along it
Description: as §1

[14] = target: T2, Human LIGHT stably expressed on EL4 cells (EL4-LIGHT) (human, UniProt O43557 1-240); assay: flow cytometry, against F19 and F23
T2 construct: whole, on cells; also called membrane LIGHT
T2 sequence (O43557 whole entry): as the sequence (O43557 whole entry T191A) above, with A191T counted along it

[15] = target: T2, Human LIGHT stably expressed on EL4 …; assay: flow cytometry competition on EL4-LIGHT cells, co-incubation 40 min 4 C; blocked ligand DcR3-Fc-AF647 0.8 ug/ml; same IC50 as 0.031ug/ml, second unit printed
Description: (§2) EL4-LIGHT cells were co-incubated with Alexa Fluor 647 conjugated DcR3-Fc (DcR3-Fc-AF647; 0.8 μg/ml) and graded concentrations (31 μg/ml to 128 μg/ml) of anti-membrane LIGHT antibodies (3B04, 03D12 and 02B111) for 40 min at 4° C. A control, of a mAb that binds both soluble and membrane LIGHT was included (F19 from EP2292663). The samples were washed three times and flow cytometry analysis was performed. Specific mean fluorescence intensity (MFI) obtained from the binding of DcR3-Fc-AF647 to LIGHT on EL4 cells were used to determine the levels of competition binding.

[16] = target: T2, Human LIGHT stably expressed on EL4 …; assay: flow cytometry, EL4-LIGHT cells
Description: The EC50 of the 7 mAbs were calculated from binding to EL4-LIGHT cells (FIG. 1). […] Non-linear regression analysis was performed to determine the functional binding affinity measurement or EC50 for each mAb. A range of functional affinities was observed.

[17] = target: T2, Human LIGHT stably expressed on EL4 …; assay: flow cytometry competition on EL4-LIGHT cells, co-incubation 40 min 4 C; blocked ligand DcR3-Fc-AF647 0.8 ug/ml; displacement is partial
Description: as §2

[18] = target: T3, Human LIGHT-214E, full length, expressed on cells (human, UniProt O43557 1-240); assay: flow cytometry, HEK293FF human LIGHT cells
T3 construct: also called membrane LIGHT

Binder	binding result [1]	IC50, inhibition of IL-8 secretion, HT-29 + EL4-NC-LIGHT cells [2]	% of WT binding [3]	% of WT binding [4]	% of WT binding [5]	% of WT binding [6]	% of WT binding [7]	% of WT binding [8]	% of WT binding [9]	% of WT binding [10]	% of WT binding [11]	% of WT binding [12]	% of WT binding [13]	binding ratio, mAb to LIGHT trimer [14]	IC50 [15]	EC50 [16]	IC50 [17]	EC50 [18]
2B11 chimeric IgG4 mAb (antibody, V domains shown, Chimeric human IgG4 (S-to-P, L-to-E) with human CL, as m1; Often misprinted 2B111; also called Parental 2B11; 2B111) VH: EVQLVESGAELVRPGVSVKISCKGSGYTFTDYAIHWVKQSHAKSLEWIGVISTYYGDASYNQKFKGKATMTVDKSSSTAYMELARLTSEDSAIYYCARSRGEYGNYDAMDYWGQGTSVTVSS VL: DIVLTQSPASLAVSLGQRATISCRASESVDSYGNSFMHWYQQKPGQPPKLLIYRASNLESGIPARFSGSGSRTDFTLTINPVEADDVATYYCQQSNEDPYTFGGGTKLEIK	binds	0.6 nM	1%	3%	77%	73%	0%	0%	0%	52%	78%	96%	0%	1 mAb per LIGHT trimer	0.214 nM	0.083 nM	0.031 mg/L	
LTβR-Fc (R&D Systems) (Fc fusion, UniProt P36941 28-227, looked up, also called LTBR-Fc; biotin-LTβR-Fc; not shown: Fc part of the bought fusion; not described) SQPQAVPPYASENQTCRDQEKEYYEPQHRICCSRCPPGTYVSAKCSRIRDTVCATCAENSYNEHWNYLTICQLCRPCDPVMGLEEIAPCTSKRKTQCRCQPGMFCAAWALECTHCELLSDCPPGTEAELKDEVGKGNNHCVPCKAGHFQNTSSPSARCQPHTRCENQGLVEAAPGTAQSDTTCKNPLEPLPPEMSGTMLM																		15 nM
HVEM-Fc (R&D Systems) (Fc fusion, UniProt Q92956 37-202, looked up, unlabelled in the Fab screen; also called biotin-HVEM-Fc; not shown: Fc part of the bought fusion; not described) PALPSCKEDEYPVGSECCPKCSPGYRVKEACGELTGTVCEPCPPGTYIAHLNGLSKCLQCQMCDPAMGLRASRNCSRTENAVCGCSPGHFCIVQDGDHCAACRAYATSSPGQRVQKGGTESQDTLCQNCPPGTFSPNGTLEECQHQTKCSWLVTKAGAGTSSSHWV																		45 nM
